Experimental data published in the supplement of paper PMC7877785.
± gives the uncertainty stated by the source.

Assay: self-splicing fitness, log relative to wild type (ln ratio); higher = more splicing; Tetrahymena group I intron in knt gene, E. coli kanamycin selection, DiMSum; sequences stand for … in CUCUCU…GGAGGGAAAAGUUAUCAGGCAUGCACCUGGUAGCUAGUCUUUAAACCAAUAGAUUGCAUCGGUUUAAAAGGCAAGACCGUCAAAUUGCGGGAAAGGGGUCAACAGCCGUUCAGUACCAAGUCUCAGGGGAAACUUUGAGAUGGCCUUGCAAAGGGUAUGGUAAUAAGCUGACGGACAUGGUCCUAACCACGCAGCCAAGUCCUAAGUCAACAGAUCUUCUGUUGAUAUGGAUGCAGUUCACAGACUAAAUGUCGGUCGGGGAAGAUGUAUUCUUCUCAUAAGAUAUAGUCGGACCUCUCCUUAAUGGGAGCUAGCGGAUGAAGUGAUGCAACACUGGAGCCGCUGGGAACUAAUUUGUAUGCGAAAGUAUAUUGAUUAGUUUUGGAGUACUCGUGGUCG
Procedure, shortened: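 Six replicate transformations of E. coli BL21(DE3) with a pET-22b(+) library were grown overnight at 37°C or 30°C. The library randomised all eight P1ex-region intron nucleotides, the intron lying in the knt kanamycin-resistance gene, and plates were LB agar with or without 25 μg/mL kanamycin plus 100 μg/mL carbenicillin, 50 μM IPTG and 0.2% rhamnose. Pooled colonies were amplicon-sequenced on an Illumina HiSeq 2500, and fitness is the DiMSum error-weighted combination of wild-type-normalised replicate fold changes, kanamycin versus none.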

| Sequence | self-splicing fitness (ln) (30 °C) | self-splicing fitness (ln) (37 °C) |
| --- | --- | --- |
| GCCUAGCAAUAUUACGCUAU | -0.383 ± 0.11 | -0.105 ± 0.17 |
| CAAUAGCAAUAUUACGCCGU | -3.47 ± 0.15 | -1.4 ± 0.14 |
| AUCGAGCAAUAUUACGGUCC | -3.46 ± 0.46 | – |
| UAAUAGCAAUAUUACGAAAA | -2.83 ± 0.26 | -1.59 ± 0.15 |
| UCCGAGCAAUAUUACGACGA | -0.666 ± 0.086 | 0.401 ± 0.11 |
| UAACAGCAAUAUUACGCGCG | -0.332 ± 0.064 | -0.361 ± 0.078 |
| CGCCAGCAAUAUUACGUGGG | -3.79 ± 0.19 | -2.38 ± 0.19 |
| UCCGAGCAAUAUUACGGUCG | -3.68 ± 0.47 | -2 ± 0.45 |
| CGGUAGCAAUAUUACGGAAU | – | -1.93 ± 0.47 |
| AGGUAGCAAUAUUACGGAAA | -2.92 ± 0.033 | -1.96 ± 0.039 |
| CUUUAGCAAUAUUACGAAUG | 0.423 ± 0.14 | -0.306 ± 0.17 |
| UUCCAGCAAUAUUACGGUAU | -2.13 ± 0.11 | -1.5 ± 0.12 |
| GCUCAGCAAUAUUACGUUGA | -3.15 ± 0.18 | -2.42 ± 0.2 |
| CUUUAGCAAUAUUACGAACG | 0.602 ± 0.16 | 0.157 ± 0.19 |
| UCCUAGCAAUAUUACGGACU | -3.59 ± 0.24 | -2.39 ± 0.22 |
| UAUUAGCAAUAUUACGGGGG | -4.15 ± 0.46 | -2.75 ± 0.34 |
| GUUGAGCAAUAUUACGCAGG | -3.35 ± 0.28 | -1.75 ± 0.37 |
| CAUAAGCAAUAUUACGGAAA | – | -0.782 ± 0.37 |
| GUCUAGCAAUAUUACGAAUU | -1.29 ± 0.077 | -0.287 ± 0.098 |
| UGACAGCAAUAUUACGCUGC | -4.45 ± 0.25 | -2.65 ± 0.18 |

| Sequence | self-splicing fitness (ln) (30 °C) | self-splicing fitness (ln) (37 °C) |
| --- | --- | --- |
| UAUAAGCAAUAUUACGGCUU | -1.22 ± 0.12 | -0.669 ± 0.16 |
| CACAAGCAAUAUUACGUUAA | -4.3 ± 0.27 | -2.28 ± 0.13 |
| AUUCAGCAAUAUUACGGGUC | -4.41 ± 0.46 | -2.94 ± 0.24 |
| AUACAGCAAUAUUACGGUGC | -3.65 ± 0.19 | -1.74 ± 0.16 |
| AUGUAGCAAUAUUACGUCUC | – | -2.4 ± 0.3 |
| AGGUAGCAAUAUUACGCAGA | -2.681 ± 0.023 | -1.59 ± 0.034 |
| UACUAGCAAUAUUACGUCGA | -2.11 ± 0.12 | -0.821 ± 0.12 |
| GAAAAGCAAUAUUACGGGUA | -1.29 ± 0.1 | -0.306 ± 0.095 |
| GUAUAGCAAUAUUACGACAU | -0.233 ± 0.014 | 0.0814 ± 0.033 |
| UCUCAGCAAUAUUACGGGGG | -3.53 ± 0.27 | -2.02 ± 0.2 |
| CGUUAGCAAUAUUACGGGCA | -0.756 ± 0.15 | -1.2 ± 0.11 |
| AAUGAGCAAUAUUACGACUA | -2.47 ± 0.25 | -0.177 ± 0.21 |
| UGCAAGCAAUAUUACGUCUG | -1.34 ± 0.08 | -0.432 ± 0.1 |
| CGAGAGCAAUAUUACGUGUG | -2.97 ± 0.12 | -2.5 ± 0.15 |
| GUGAAGCAAUAUUACGGGCG | -0.39 ± 0.052 | -0.217 ± 0.065 |
| AGGUAGCAAUAUUACGCGCA | -0.305 ± 0.016 | 0.00281 ± 0.034 |
| AGAUAGCAAUAUUACGUUAG | -4.56 ± 0.31 | -0.345 ± 0.15 |
| UUCCAGCAAUAUUACGGUCG | -0.395 ± 0.081 | 0.623 ± 0.11 |
| ACAGAGCAAUAUUACGUGCG | -2.89 ± 0.29 | -1.75 ± 0.28 |
